This test concerns the target Cdc42, endogenous in human mammary epithelial cells (human (endogenous in MCF10A and HMEC)) (UniProt P60953). Description: pull-down.
Chain of UniProt P60953 (P60953 whole entry): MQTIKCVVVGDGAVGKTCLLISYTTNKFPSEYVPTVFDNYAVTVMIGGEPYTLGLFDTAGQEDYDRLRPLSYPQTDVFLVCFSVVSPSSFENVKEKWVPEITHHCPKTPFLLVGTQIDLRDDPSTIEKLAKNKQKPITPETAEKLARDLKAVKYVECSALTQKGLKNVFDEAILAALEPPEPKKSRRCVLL

For “TβRIII-T841A (β-arrestin2 binding deficient) (from UniProt Q03167 21-851) (receptor)”, the percent decrease of the pull-down relative to TβRIII turned out to be 70%. As for “TβRIIIΔCyto (TβRIII lacking cytoplasmic domain) (domain or fragment)”, the percent decrease of the pull-down relative to TβRIII came to 60%.

The values above are taken from PMC4082962.
